Experimental data from US20210340207A1 (Merck Sharp & Dohme, published 2021).
*1 amine or outer side, *2 acyl side, *3 side chain or, on linkers, in order; H or OH if unused. Side-chain parts run from the residue outwards. [ ]: non-standard residue; d: D form. pAMF = para-azidomethylphenylalanine, [N-]=[N+]=NCc1ccc(C[C@H](N[*:1])C(=O)[*:2])cc1

Legend:
[1] = biological target: T1, Human IL-2Rβ, His tag (Table 10) (human, UniProt P14784 27-239, limits assumed); test: SPR (Biacore T200)
T1 construct: not shown: polyhistidine tag
T1 sequence (looked up): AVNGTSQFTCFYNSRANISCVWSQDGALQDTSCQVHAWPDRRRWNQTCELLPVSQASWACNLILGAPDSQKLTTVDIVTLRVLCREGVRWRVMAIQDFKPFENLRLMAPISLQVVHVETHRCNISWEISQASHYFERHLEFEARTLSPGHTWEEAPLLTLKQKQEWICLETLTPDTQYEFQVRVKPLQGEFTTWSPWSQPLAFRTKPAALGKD
Procedure: (§1) A Surface Plasmon Resonance (SPR) assay on a Biacore T200 (GE Healthcare) instrument was used to determine the monovalent affinities of pegylated aldesleukin variants against polyhistidine-tagged or Fc-tagged IL-2 Receptors. Biacore T200 Evaluation Software was used to fit each titration series to a 1:1 binding model or steady state affinity. The association (kₒₙ, M⁻¹ s⁻¹) and dissociation (koff, s⁻¹) rate constants were determined for each set of titrations and used to calculate the dissociation constant, KD=koff/kₒₙ, of each sample against each receptor. koff/kₒₙ values are not reported herein.

[2] = biological target: T2, Cynomolgus/Rhesus IL-2Rβ, His tag (Table 10) (cynomolgus monkey / rhesus monkey, UniProt Q38J85 27-240); test: SPR (Biacore T200)
T2 sequence: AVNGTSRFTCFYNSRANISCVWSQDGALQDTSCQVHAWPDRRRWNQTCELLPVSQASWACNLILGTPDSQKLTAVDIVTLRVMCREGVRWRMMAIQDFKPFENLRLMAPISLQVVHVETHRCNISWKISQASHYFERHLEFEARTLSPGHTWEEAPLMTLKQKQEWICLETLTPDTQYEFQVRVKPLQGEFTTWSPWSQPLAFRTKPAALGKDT
Procedure: as §1

[3] = biological target: T3, human IL-2Rαβγc (on Kit225-STAT5 reporter cells, NK-92 cells, primary Treg cells) (human, UniProt P01589 22-272; P14784 27-551; P31785 23-369); test: cell-based or functional assay
T3 sequence (looked up) 1: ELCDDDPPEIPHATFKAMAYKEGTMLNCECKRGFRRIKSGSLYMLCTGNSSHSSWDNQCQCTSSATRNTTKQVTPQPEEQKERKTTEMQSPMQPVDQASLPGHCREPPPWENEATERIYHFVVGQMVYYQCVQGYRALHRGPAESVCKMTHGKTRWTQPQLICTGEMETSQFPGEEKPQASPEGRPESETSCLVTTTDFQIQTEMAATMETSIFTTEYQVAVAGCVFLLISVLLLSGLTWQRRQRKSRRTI
T3 sequence (looked up) 2: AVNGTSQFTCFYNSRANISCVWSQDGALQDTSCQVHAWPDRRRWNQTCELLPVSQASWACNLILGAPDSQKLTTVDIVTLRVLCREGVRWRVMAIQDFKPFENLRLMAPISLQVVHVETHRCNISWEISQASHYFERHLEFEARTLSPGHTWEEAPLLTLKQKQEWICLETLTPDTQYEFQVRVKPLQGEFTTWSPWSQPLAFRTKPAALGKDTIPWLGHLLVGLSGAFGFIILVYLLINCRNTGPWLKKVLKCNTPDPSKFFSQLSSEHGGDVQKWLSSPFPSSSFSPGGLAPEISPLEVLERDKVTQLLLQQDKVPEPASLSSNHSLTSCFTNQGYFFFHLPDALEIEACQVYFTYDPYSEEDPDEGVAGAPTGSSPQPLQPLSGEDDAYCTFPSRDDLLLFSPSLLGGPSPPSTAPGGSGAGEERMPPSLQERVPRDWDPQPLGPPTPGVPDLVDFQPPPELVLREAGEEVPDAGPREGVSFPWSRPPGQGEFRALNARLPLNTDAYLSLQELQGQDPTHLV
T3 sequence (looked up) 3: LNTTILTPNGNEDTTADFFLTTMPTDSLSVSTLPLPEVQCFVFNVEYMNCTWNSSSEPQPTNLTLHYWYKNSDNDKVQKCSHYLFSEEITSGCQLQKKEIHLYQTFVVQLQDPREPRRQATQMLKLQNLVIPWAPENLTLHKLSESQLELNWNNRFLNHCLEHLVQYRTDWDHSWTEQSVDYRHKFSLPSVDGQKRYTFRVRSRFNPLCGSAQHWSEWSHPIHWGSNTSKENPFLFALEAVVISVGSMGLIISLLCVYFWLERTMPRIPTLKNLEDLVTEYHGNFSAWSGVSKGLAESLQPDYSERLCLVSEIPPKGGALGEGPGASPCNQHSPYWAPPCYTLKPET

[4] = biological target: T3, human IL-2Rαβγc (on Kit225-STAT5 …); test: cell-based or functional assay; remark: listed apart in the source
[5] = biological target: T4, human IL-2Rβγc (on DERL-7 cells, U2OS IL2RB/IL2RG cells, CD25 knockout Kit225-STAT5 cells, primary CD8+ CTLs) (human, UniProt P14784 27-551; P31785 23-369); test: cell-based or functional assay
T4 sequence (looked up) 1: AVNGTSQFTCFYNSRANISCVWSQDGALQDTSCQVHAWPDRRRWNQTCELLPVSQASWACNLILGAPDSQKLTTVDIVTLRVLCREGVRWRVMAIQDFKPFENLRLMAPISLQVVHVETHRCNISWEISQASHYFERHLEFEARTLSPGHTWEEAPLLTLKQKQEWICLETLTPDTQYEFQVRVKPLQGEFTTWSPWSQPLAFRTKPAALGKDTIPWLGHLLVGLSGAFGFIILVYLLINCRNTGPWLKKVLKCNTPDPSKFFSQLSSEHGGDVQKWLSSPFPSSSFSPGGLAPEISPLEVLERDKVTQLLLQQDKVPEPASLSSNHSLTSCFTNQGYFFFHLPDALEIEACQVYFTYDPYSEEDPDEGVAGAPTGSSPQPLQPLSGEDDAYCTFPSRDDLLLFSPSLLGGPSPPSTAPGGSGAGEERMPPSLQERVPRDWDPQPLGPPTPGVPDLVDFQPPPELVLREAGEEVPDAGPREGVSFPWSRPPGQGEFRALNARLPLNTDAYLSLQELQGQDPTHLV
T4 sequence (looked up) 2: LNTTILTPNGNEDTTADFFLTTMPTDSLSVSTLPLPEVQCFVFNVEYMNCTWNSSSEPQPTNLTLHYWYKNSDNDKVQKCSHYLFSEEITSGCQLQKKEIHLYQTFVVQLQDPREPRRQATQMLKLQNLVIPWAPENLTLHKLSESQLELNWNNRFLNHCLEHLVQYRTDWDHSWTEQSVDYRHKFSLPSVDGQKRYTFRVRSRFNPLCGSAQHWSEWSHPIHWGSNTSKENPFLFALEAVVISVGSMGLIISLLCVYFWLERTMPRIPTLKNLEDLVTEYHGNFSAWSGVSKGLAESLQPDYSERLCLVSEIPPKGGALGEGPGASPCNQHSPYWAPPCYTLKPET

- fold lower affinity than aldesleukin [1]: 6 fold
- fold lower affinity than aldesleukin [2]: 6 fold
- Kit225-STAT5 EC50 [3]: 0.45 nM
- Kit225-STAT5 EC50 Fold-change [3]: 437 fold
- NK-92 EC50 Fold-change [3]: 117 fold
- NK-92 proliferation EC50 [3]: 0.68 nM
- pSTAT5 Treg Fold-change from wt, donor #1 [4]: 3620 fold
- pSTAT5 Treg Fold-change from wt, donor #2 [4]: 2230 fold
- pSTAT5 Treg cells EC50, donor #1 [4]: 11.8 nM
- pSTAT5 Treg cells EC50, donor #2 [4]: 7.29 nM
- pSTAT5 CTLs EC50, donor #1 [5]: 71.9 nM
- pSTAT5 CTLs EC50, donor #2 [5]: 43 nM
- pSTAT5 CTLs Fold-change from wt, donor #1 [5]: 25 fold
- pSTAT5 CTLs Fold-change from wt, donor #2 [5]: 45 fold
B1: Ald_S4pAMF(PEG1)/R37A/F41K (CON1) (ligand)
chain: PTS[pAMF]([DBCO‑triazole-mPEG 30 kDa])STKKTQLQLEHLLLDLQMILNGINNYKNPKLTAMLTKKFYMPKKATELKHLQCLEEELKPLEEVLNLAQSKNFHLRPRDLISNINVIVLELKGSETTFMCEYADETATIVEFLNRWITFSQSIISTLT
modifications: not fully specified (bridges)
notes: also called Des-A1_IL-2_S4pAMF(PEG1)/R37A/F41K/C124S
